Measurements published in the supplement of paper PMC9170038.

Tested on: MS2 coat protein
Assay: apparent KD of MS2 coat protein; designed switch direction (-1 OFF switch, 1 ON switch): -1; higher = weaker reporter binding
Outline: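 SNAP-549-labelled MS2 coat protein was titrated, doubling from 0.7 or 1.5 nM to 3 µM, over designed RNA switches transcribed on Illumina chips by stalled E. coli RNA polymerase. Runs were done without input, with 200 uM small-molecule ligand, or with an oligonucleotide input. Apparent KD is the per-design median over clusters of curve-fitted normalised fluorescence.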

[1] = input ligand: microRNA oligo, concentration not stated
[2] = Eterna round: R95, input ligand: microRNA oligo, concentration not stated

## AGUCCUAGUCAAGGAUAUACACCGAAGAAAUACGUAGAAGGUGACAUGAGGAUCACCCAUGUAGGGCCUCUGGAAACAGAGGAA [Indiinbi] (Eterna round: R96, puzzle: Exclusion NG 1)
Input ligand: FMN 200 uM
  apparent KD of MS2 coat protein: 208 nM
[1]
  apparent KD of MS2 coat protein: 107 nM
Input ligand: none
  apparent KD of MS2 coat protein: 143 nM

## AUAUCACAUGAGGAUCACCCAUGUCAGGAUAUCGACUGAACAGCUUCGGCUGUUCAGUCGAGAAGGGACAAUUA [Brourdxlusion 2 - Jieux - Exclusion 1] (Eterna round: R97, puzzle: Exclusion 1)
Input ligand: FMN 200 uM
  apparent KD of MS2 coat protein: 84.9 nM
Input ligand: none
  apparent KD of MS2 coat protein: 56.2 nM

## ACUUAUUGAGGAUAUACAGAUUAUUACAUGAGGAUCACCCAUGUUCUUCAAUGUAUAUAUGUAGAAGGCAGAAGUA [Mat - Exclusion 5 - JL Mod - D14] (Eterna round: R97, puzzle: Exclusion 5)
Input ligand: FMN 200 uM
  apparent KD of MS2 coat protein: 317 nM
Input ligand: none
  apparent KD of MS2 coat protein: 88.9 nM

## GGAAUACAUGAGGAUCACCCAUGUAAGGAUAUGCUGAUUAAUUAAUUAUAAUUAUGCAGCAGAAGGUACAAAGG [Mat - Mod of my Eli Mod D50] (puzzle: Exclusion 1)
[2]
  apparent KD of MS2 coat protein: 87 nM

## GAAAACGCAGAGGAUAUUUCAGAUCAAAGCUGCAAAGAAGGCUGCACAUGAGGAUCACCCAUGUGGUCUUCAAA [jl-ex6-4.02 ViennaUCT mod] (Eterna round: R97, puzzle: Exclusion 6)
Input ligand: FMN 200 uM
  apparent KD of MS2 coat protein: 386 nM
Input ligand: none
  apparent KD of MS2 coat protein: 20.7 nM

## AAUAAUUGUGACUUGGGUGACAUGAGGAUCACCCAUGUCACAAGCUUGUUGCUCGCCUUAUAAUUAACCCAUGUCAC [LRO Sensor-off var1-26 mod of Stov1-13-A1 by Brourd] (Eterna round: R97, puzzle: Sensor, turn-off variant 1)
Input ligand: FMN 200 uM
  apparent KD of MS2 coat protein: 70.5 nM
Input ligand: none
  apparent KD of MS2 coat protein: 80.6 nM

## GACAUGAGGAUCACCCAUGUAACCUCAUGUAGGAAGGAGAGUAAGGAUAUAUAUGAAGGAAUGAAGUAGAAGGUGCAUAGAGAG [Default title] (Eterna round: R96, puzzle: Exclusion NG 3)
Input ligand: FMN 200 uM
  apparent KD of MS2 coat protein: 539 nM
[1]
  apparent KD of MS2 coat protein: 1350 nM
Input ligand: none
  apparent KD of MS2 coat protein: 854 nM

## AUAAUGUAAGGAUAUCAGUCGACUAGCCUCGGCUAGUCGACUGAGAAGGUACAUGAGGAUCACCCAUGUGAUUA [E4/10-A2] (Eterna round: R97, puzzle: Exclusion 4)
Input ligand: FMN 200 uM
  apparent KD of MS2 coat protein: 762 nM
Input ligand: none
  apparent KD of MS2 coat protein: 191 nM

## UAAUACAUCUAUGGGAGUAACAUGAGGAUCACCCAUGUAUGUCUUGUUUUUUGUUCGUCAUAGACUUUCUGAUCAGU [JR_SV3TOV1_Sub029] (puzzle: Sensor v3, turn-off variant 1)
Eterna round: R95, input ligand: FMN 200 uM
  apparent KD of MS2 coat protein: 47.9 nM
[2]
  apparent KD of MS2 coat protein: 175 nM
Eterna round: R95, input ligand: none
  apparent KD of MS2 coat protein: 52.2 nM

## CCCAUGUUAGGAUAUCGGCUCCGCCGUUCCACAUGGCGCUCCGAGAAGGAACAUGAGGAUCACCCAUGUAAAGA [Raza] (puzzle: Exclusion 4)
[2]
  apparent KD of MS2 coat protein: 34 nM

## UAAUUAGCAAGUAGAUCCGACAUGAGGAUCACCCAUGUUAUCUGAAAGAACGCAGAAUAACUGUGAGCUCGUCUAAA [Sensor-V1 #1] (Eterna round: R97, puzzle: Sensor, turn-off variant 1)
Input ligand: FMN 200 uM
  apparent KD of MS2 coat protein: 315 nM
Input ligand: none
  apparent KD of MS2 coat protein: 333 nM

## GGGAAGAACCAACAAGUAAACAUGAGGAUCACCCAUGUAAACUUCAUGUGCACGCUUUGCGUGCAAGCUCGUCUUAU [AK-miRNA-r3-14] (Eterna round: R97, puzzle: Sensor, turn-off variant 1)
Input ligand: FMN 200 uM
  apparent KD of MS2 coat protein: 19.2 nM
Input ligand: none
  apparent KD of MS2 coat protein: 18.6 nM

## CGGCGGGCAGGAUAUGGUAAUAAUUACAUGAGGAUCACCCAUGUAGAUAUAUGGGAAUAACCAGAAGGGCUUGUUG [-20.5, -20.3 kcal, A 32%] (Eterna round: R97, puzzle: Exclusion 5)
Input ligand: FMN 200 uM
  apparent KD of MS2 coat protein: 19.7 nM
Input ligand: none
  apparent KD of MS2 coat protein: 28.7 nM

## CGCAUACUAGGAUAUACAUGAGGAUCACCCAUGUCGCCGGGCCCACUCAUACUAAAACGUAGAAGGAGUUUGCC [Enlalari] (puzzle: Exclusion 3)
[2]
  apparent KD of MS2 coat protein: 16.5 nM
